Columns and labels:
[1] = molecular target: SARS-CoV; test: ELISA
[2] = molecular target: Yunnan2011; test: ELISA
[3] = molecular target: WIV1; test: ELISA
[4] = molecular target: RaTG13; test: ELISA
[5] = molecular target: RmYN02; test: ELISA
[6] = molecular target: Rf1; test: ELISA
[7] = molecular target: BtKY72; test: ELISA
[8] = molecular target: GX-Pangolin; test: ELISA
[9] = molecular target: Rs4081; test: ELISA
[10] = molecular target: SHC014; test: ELISA
[11] = molecular target: BM-4831; test: ELISA
[12] = molecular target: SARS-CoV-2 Spike; test: SPR
[13] = molecular target: SARS-COV spike trimer (SARS-CoV, UniProt P59594 14-1190); test: SPR

B1: 10-28 (antibody, V domains shown)
VH: QVQLVESGGGVVQPGRSLRLSCAASGFTFSSYDMHWVRQAPGKGLEWVAVISYDGSSKFYAESVKGRFTISRDNSKNTLYLQMNSLRAEETAVYYCVKDGEQLVPLFDYWGQGTLVTVSS
VL: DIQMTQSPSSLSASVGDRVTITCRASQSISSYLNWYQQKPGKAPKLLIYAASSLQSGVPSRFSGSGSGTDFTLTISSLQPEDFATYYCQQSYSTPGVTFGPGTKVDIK
For B1, the EC50 [1] was 5 ng/mL, the EC50 [2] was 9 ng/mL and the EC50 [3] was 3 ng/mL. It also gave an EC50 [4] of 2 ng/mL, an EC50 [5] of 6 ng/mL and an EC50 [6] of 4 ng/mL. For the same binder, the EC50 [7] was 4 ng/mL, the EC50 [8] was 4 ng/mL and the EC50 [9] was 7 ng/mL. It also gave an EC50 [10] of 2 ng/mL, an EC50 [11] of 2 ng/mL and a Kd [12] of 0.782 pM.

B2: engineered monoclonal antibody 10-28 (antibody, V domains shown)
VH: QVQLVESGGGVVQPGRSLRLSCAASGFTFSSYDMHWVRQAPGKGLEWVAVISYDGSSKFYAESVKGRFTISRDNSKNTLYLQMNSLRAEETAVYYCVKDGEQLVPLFDYWGQGTLVTVSS
VL: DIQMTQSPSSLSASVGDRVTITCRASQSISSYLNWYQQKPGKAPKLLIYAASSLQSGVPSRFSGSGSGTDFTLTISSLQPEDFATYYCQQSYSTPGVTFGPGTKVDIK
In the case of B2, the Kd [13] is reported as 3.69 pM.

B3: 10-40 (antibody, V domains shown)
VH: QLQLQESGPGLVKPSETLSLTCTVSGGSISSSNFYWGWIRQPPGKGLEWIASITYSGRTFYNPSLKSRVAISVDTSKNQFSLKLSSVTAADTAVYYCARTFPSYYDRSGYHYLNYGMDVWGQGTTVTVSS
VL: NFMLTQPHSMSESPGKTVTISCTRSSGSIASNYVQWYQQRPGSSPTTVIYEDNQRPSGVPDRFSGSIDSSSNSASLTISGLKTEDEADYYCQSYDSSSWVFGGGTKLTVL
B3 gave an EC50 [1] of 8 ng/mL, an EC50 [2] of 37 ng/mL and an EC50 [3] of 4 ng/mL. For the same binder, the EC50 [4] was 3 ng/mL, the EC50 [5] was 10 ng/mL and the EC50 [6] was 4 ng/mL. For the same binder, the EC50 [7] was 4 ng/mL, the EC50 [8] was 4 ng/mL and the EC50 [9] was 9 ng/mL. The EC50 [10] was 5 ng/mL, the EC50 [11] was 3 ng/mL and the Kd [12] was 4.52 pM.

B4: engineered monoclonal antibody 10-40 (antibody, V domains shown)
VH: QLQLQESGPGLVKPSETLSLTCTVSGGSISSSNFYWGWIRQPPGKGLEWIASITYSGRTFYNPSLKSRVAISVDTSKNQFSLKLSSVTAADTAVYYCARTFPSYYDRSGYHYLNYGMDVWGQGTTVTVSS
VL: NFMLTQPHSMSESPGKTVTISCTRSSGSIASNYVQWYQQRPGSSPTTVIYEDNQRPSGVPDRFSGSIDSSSNSASLTISGLKTEDEADYYCQSYDSSSWVFGGGTKLTVL
Work on B4 yielded a Kd [13] of 2.21 pM.

B5: 11-11 (antibody, V domains shown)
VH: QVQLQESGPGLVKPSQTLSLTCTVSGGSISSGGYYWSWIRQHPGKGLEWIGYIYYSGSTYYNPSLKSRVTISVDTSKNQFSLKVSSVTAADTAVYYCASSNYYDGSGYNLLESYGMDVWGQGTSVTVSS
VL: QSVLTQPPSVSGAPGQRVTISCTGSSSNIGAGYDVHWYQQLPGTAPKLLIYGNSNRPSGVPDRFSGSRSGTSASLAITGLQAEDEADYYCQSYDSSLSGSWVFGGGTKVTVL
B5 was tested, and the EC50 [1] was 19 ng/mL, the EC50 [2] was > 10000 ng/mL and the EC50 [3] was 6 ng/mL. The EC50 [4] was > 10000 ng/mL, the EC50 [5] was > 10000 ng/mL and the EC50 [6] was > 10000 ng/mL. The EC50 [7] was 7 ng/mL, the EC50 [8] was > 10000 ng/mL and the EC50 [9] was > 10000 ng/mL. The EC50 [10] was 6 ng/mL, the EC50 [11] was 1500 ng/mL and the Kd [12] was 1540 pM.

B6: engineered monoclonal antibody 11-11 (antibody, V domains shown)
VH: QVQLQESGPGLVKPSQTLSLTCTVSGGSISSGGYYWSWIRQHPGKGLEWIGYIYYSGSTYYNPSLKSRVTISVDTSKNQFSLKVSSVTAADTAVYYCASSNYYDGSGYNLLESYGMDVWGQGTSVTVSS
VL: QSVLTQPPSVSGAPGQRVTISCTGSSSNIGAGYDVHWYQQLPGTAPKLLIYGNSNRPSGVPDRFSGSRSGTSASLAITGLQAEDEADYYCQSYDSSLSGSWVFGGGTKVTVL
In the case of B6, the Kd [13] is reported as 4.51 pM.
